Results from article PMC9482650, “Quantitative fragmentomics allow affinity mapping of interactomes” (Nature Communications, 2022).

Assays:
Test in all cases: holdup assay
Parameters in all cases: key: below the threshold = too weak to quantify, mostly under pKd 3.1 to 4
PDZRN4_1, Q6ZMN7 = molecular target: PDZRN4_1, Q6ZMN7
TJP1_3, Q07157 = molecular target: TJP1_3, Q07157
DLG4_3, P78352 = molecular target: DLG4_3, P78352
NHERF4_1, Q86UT5-2 = molecular target: NHERF4_1, Q86UT5-2
DVL3, Q92997 = molecular target: T1, DVL3, Q92997
T1 sequence (Q92997 244-331, limits assumed, looked up): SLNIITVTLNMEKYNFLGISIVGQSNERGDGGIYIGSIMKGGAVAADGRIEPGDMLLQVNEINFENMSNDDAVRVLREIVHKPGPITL

APBA3_1, O96018 = molecular target: T2, APBA3_1, O96018
T2 sequence (O96018 389-490, limits assumed, looked up): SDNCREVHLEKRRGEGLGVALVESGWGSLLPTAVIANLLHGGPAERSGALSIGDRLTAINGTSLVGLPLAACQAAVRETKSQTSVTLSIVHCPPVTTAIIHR

LAP2, Q96RT1 = molecular target: LAP2, Q96RT1
Chain of LAP2, Q96RT1 (Q96RT1 other isoform, or with tags, fused parts or gaps): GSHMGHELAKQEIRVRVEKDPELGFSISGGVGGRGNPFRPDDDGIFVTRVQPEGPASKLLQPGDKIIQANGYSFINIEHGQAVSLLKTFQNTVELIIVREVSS

MPP7, Q5T2T1 = molecular target: T3, MPP7, Q5T2T1
T3 sequence (Q5T2T1 134-230, limits assumed, looked up): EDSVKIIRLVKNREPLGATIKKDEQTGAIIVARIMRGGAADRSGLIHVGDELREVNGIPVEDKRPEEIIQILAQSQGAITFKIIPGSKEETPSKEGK

HTRA2, O43464 = molecular target: HTRA2, O43464
Chain of HTRA2, O43464 (O43464 355-458): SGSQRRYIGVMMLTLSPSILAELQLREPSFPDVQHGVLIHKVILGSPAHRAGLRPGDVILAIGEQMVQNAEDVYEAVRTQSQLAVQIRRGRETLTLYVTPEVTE

GRIP1_5, Q9Y3R0 = molecular target: T4, GRIP1_5, Q9Y3R0
T4 sequence (Q9Y3R0 568-668, limits assumed, looked up): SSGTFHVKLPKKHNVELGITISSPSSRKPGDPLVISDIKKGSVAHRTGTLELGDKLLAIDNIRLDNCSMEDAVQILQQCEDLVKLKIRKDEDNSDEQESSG

LNX2_3, Q8N448 = molecular target: T5, LNX2_3, Q8N448
T5 sequence (Q8N448 463-564, limits assumed, looked up): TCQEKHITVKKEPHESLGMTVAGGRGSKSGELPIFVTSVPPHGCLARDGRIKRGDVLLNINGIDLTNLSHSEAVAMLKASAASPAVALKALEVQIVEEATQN

LNX1_1, Q8TBB1 = molecular target: LNX1_1, Q8TBB1
Chain of LNX1_1, Q8TBB1 (Q8TBB1 261-371): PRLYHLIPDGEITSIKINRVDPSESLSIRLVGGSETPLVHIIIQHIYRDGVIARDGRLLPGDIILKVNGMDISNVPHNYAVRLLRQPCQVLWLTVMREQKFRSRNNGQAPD

HTRA3, P83110 = molecular target: T6, HTRA3, P83110
T6 sequence (P83110 354-453, limits assumed, looked up): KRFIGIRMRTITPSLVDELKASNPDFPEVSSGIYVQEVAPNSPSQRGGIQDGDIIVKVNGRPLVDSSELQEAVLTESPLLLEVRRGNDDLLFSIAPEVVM

HTRA1, Q92743 = molecular target: HTRA1, Q92743
Chain of HTRA1, Q92743 (Q92743 360-477): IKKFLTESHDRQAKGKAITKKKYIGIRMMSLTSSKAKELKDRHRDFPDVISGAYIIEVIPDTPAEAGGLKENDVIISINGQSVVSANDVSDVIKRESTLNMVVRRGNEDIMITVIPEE

CARD11, Q9BXL7 = molecular target: T7, CARD11, Q9BXL7
T7 sequence (Q9BXL7 662-765, limits assumed, looked up): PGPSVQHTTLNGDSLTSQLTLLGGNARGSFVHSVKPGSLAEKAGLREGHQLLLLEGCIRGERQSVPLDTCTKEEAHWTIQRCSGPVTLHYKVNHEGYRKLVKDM

LRRC7, Q96NW7 = molecular target: T8, LRRC7, Q96NW7
T8 sequence (Q96NW7 1440-1537, limits assumed, looked up): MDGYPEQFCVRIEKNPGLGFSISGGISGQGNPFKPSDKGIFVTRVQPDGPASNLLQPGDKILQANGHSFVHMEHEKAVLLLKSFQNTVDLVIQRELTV

GRIP2_4, Q9C0E4 = molecular target: GRIP2_4, Q9C0E4
Chain of GRIP2_4, Q9C0E4 (Q9C0E4 446-548): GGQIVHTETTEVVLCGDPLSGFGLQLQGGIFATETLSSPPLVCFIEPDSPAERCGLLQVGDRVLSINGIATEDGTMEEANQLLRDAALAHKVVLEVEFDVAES

MAGI3_2, Q5TCQ9 = molecular target: MAGI3_2, Q5TCQ9
Chain of MAGI3_2, Q5TCQ9 (Q5TCQ9 398-503): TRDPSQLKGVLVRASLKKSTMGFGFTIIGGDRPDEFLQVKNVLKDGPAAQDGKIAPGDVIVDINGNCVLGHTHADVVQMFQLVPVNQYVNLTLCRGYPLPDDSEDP

GORASP2, Q9H8Y8 = molecular target: GORASP2, Q9H8Y8
LNX1_2, Q8TBB1 = molecular target: LNX1_2, Q8TBB1
Chain of LNX1_2, Q8TBB1 (Q8TBB1 371-470): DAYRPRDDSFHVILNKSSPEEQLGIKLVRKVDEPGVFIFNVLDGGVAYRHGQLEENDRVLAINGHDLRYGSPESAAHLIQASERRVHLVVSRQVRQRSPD

GOPC, Q9HD26 = molecular target: GOPC, Q9HD26
SNTB1, Q13884 = molecular target: T9, SNTB1, Q13884
T9 sequence (Q13884 107-205, limits assumed, looked up): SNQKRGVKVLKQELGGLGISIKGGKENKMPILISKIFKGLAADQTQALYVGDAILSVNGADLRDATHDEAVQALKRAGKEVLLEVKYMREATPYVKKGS

GRIP2_6, Q9C0E4 = molecular target: GRIP2_6, Q9C0E4
Chain of GRIP2_6, Q9C0E4 (Q9C0E4 648-740): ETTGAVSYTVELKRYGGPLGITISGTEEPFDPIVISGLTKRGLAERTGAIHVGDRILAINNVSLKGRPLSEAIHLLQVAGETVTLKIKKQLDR

Inadl_6, Q8NI35 = molecular target: Inadl_6, Q8NI35
Chain of Inadl_6, Q8NI35 (Q8NI35 1058-1167): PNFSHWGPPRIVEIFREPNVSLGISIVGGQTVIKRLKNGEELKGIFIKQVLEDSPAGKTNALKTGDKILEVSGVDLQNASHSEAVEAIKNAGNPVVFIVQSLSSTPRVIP

FRMPD3, Q5JV73 = molecular target: FRMPD3, Q5JV73
Chain of FRMPD3, Q5JV73 (Q5JV73 12-100): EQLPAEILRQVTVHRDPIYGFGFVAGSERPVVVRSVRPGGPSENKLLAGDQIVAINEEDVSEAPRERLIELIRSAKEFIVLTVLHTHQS

DLG2_2, Q15700 = molecular target: DLG2_2, Q15700
Chain of DLG2_2, Q15700 (Q15700 189-283): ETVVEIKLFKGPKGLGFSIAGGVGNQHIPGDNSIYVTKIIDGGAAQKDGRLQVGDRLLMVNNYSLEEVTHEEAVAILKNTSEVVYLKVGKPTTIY

TJP3_3, O95049 = molecular target: T10, TJP3_3, O95049
T10 sequence (O95049 375-456, limits assumed, looked up): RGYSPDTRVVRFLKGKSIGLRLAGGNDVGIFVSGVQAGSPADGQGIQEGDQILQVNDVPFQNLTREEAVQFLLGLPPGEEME

[1] = plain residues with an end cap or a label only (N-terminal biotin on a linker: ttds)
[2] = plain residues with an end cap or a label only (N-terminal biotin on a linker: ahx)
[3] = plain residues with an end cap or a label only (N-terminal biotin on a linker: ado-ado)

Chain of DLG4_3, P78352 (P78352 306-403): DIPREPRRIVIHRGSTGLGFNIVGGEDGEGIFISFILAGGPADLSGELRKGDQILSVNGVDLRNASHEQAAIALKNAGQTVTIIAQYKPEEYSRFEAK
Chain of PDZRN4_1, Q6ZMN7 (Q6ZMN7 213-318): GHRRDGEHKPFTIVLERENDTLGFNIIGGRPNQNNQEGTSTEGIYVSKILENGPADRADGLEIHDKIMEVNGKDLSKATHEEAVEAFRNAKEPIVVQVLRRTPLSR
Chain of TJP1_3, Q07157 (Q07157 416-512): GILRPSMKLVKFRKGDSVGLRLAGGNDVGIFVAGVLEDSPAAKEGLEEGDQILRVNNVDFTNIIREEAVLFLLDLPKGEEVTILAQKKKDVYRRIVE
Chain of NHERF4_1, Q86UT5-2 (Q86UT5 other isoform, or with tags, fused parts or gaps): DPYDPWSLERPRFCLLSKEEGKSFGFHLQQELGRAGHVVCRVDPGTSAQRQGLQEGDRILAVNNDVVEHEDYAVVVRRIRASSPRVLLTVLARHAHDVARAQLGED

RTRQRNETQV [HPV51-E6, P26554]
pKd (PDZRN4_1, Q6ZMN7; [1]): 4.16 | pKd (TJP1_3, Q07157; [1]): below the threshold | pKd (DLG4_3, P78352; [1]): 4.75 | pKd (NHERF4_1, Q86UT5-2; [1]): below the threshold | pKd (DVL3, Q92997; [1]): below the threshold | pKd (APBA3_1, O96018; [1]): below the threshold | pKd (LAP2, Q96RT1; [1]): 3.69 | pKd (MPP7, Q5T2T1; [1]): below the threshold | pKd (HTRA2, O43464; [1]): below the threshold | pKd (GRIP1_5, Q9Y3R0; [1]): below the threshold | pKd (LNX2_3, Q8N448; [1]): below the threshold | pKd (LNX1_1, Q8TBB1; [1]): below the threshold | pKd (HTRA3, P83110; [1]): below the threshold | pKd (HTRA1, Q92743; [1]): below the threshold | pKd (CARD11, Q9BXL7; [1]): below the threshold | pKd (LRRC7, Q96NW7; [1]): below the threshold | pKd (GRIP2_4, Q9C0E4; [1]): below the threshold | pKd (MAGI3_2, Q5TCQ9; [1]): 5.83 | pKd (GORASP2, Q9H8Y8; [1]): 4.65 | pKd (LNX1_2, Q8TBB1; [1]): below the threshold | pKd (GOPC, Q9HD26; [1]): 3.72 | pKd (SNTB1, Q13884; [1]): 4.09 | pKd (GRIP2_6, Q9C0E4; [1]): below the threshold | pKd (Inadl_6, Q8NI35; [1]): below the threshold | pKd (FRMPD3, Q5JV73; [1]): below the threshold | pKd (DLG2_2, Q15700; [1]): 4.97 | pKd (TJP3_3, O95049; [1]): below the threshold

QGRWDHETIV [TMEM215, Q68D42]
pKd (PDZRN4_1, Q6ZMN7; [2]): 3.67 | pKd (TJP1_3, Q07157; [2]): below the threshold | pKd (DLG4_3, P78352; [2]): 3.64 | pKd (NHERF4_1, Q86UT5-2; [2]): below the threshold | pKd (DVL3, Q92997; [2]): 3.69 | pKd (APBA3_1, O96018; [2]): below the threshold | pKd (LAP2, Q96RT1; [2]): 4.09 | pKd (MPP7, Q5T2T1; [2]): 3.63 | pKd (HTRA2, O43464; [2]): 3.68 | pKd (GRIP1_5, Q9Y3R0; [2]): 3.55 | pKd (LNX2_3, Q8N448; [2]): below the threshold | pKd (LNX1_1, Q8TBB1; [2]): 4.17 | pKd (HTRA3, P83110; [2]): below the threshold | pKd (HTRA1, Q92743; [2]): 5 | pKd (CARD11, Q9BXL7; [2]): below the threshold | pKd (LRRC7, Q96NW7; [2]): 3.76 | pKd (GRIP2_4, Q9C0E4; [2]): below the threshold | pKd (MAGI3_2, Q5TCQ9; [2]): 4.66 | pKd (GORASP2, Q9H8Y8; [2]): 4.3 | pKd (LNX1_2, Q8TBB1; [2]): 4.23 | pKd (GOPC, Q9HD26; [2]): 3.99 | pKd (SNTB1, Q13884; [2]): 4.95 | pKd (GRIP2_6, Q9C0E4; [2]): below the threshold | pKd (Inadl_6, Q8NI35; [2]): 3.98 | pKd (FRMPD3, Q5JV73; [2]): below the threshold | pKd (DLG2_2, Q15700; [2]): 4.07 | pKd (TJP3_3, O95049; [2]): 3.62

EEPEERHTEL [CES2, O00748]
pKd (PDZRN4_1, Q6ZMN7; [3]): 4.13 | pKd (TJP1_3, Q07157; [3]): below the threshold | pKd (DLG4_3, P78352; [3]): below the threshold | pKd (NHERF4_1, Q86UT5-2; [3]): 4.09 | pKd (DVL3, Q92997; [3]): below the threshold | pKd (APBA3_1, O96018; [3]): below the threshold | pKd (LAP2, Q96RT1; [3]): below the threshold | pKd (MPP7, Q5T2T1; [3]): 3.79 | pKd (HTRA2, O43464; [3]): below the threshold | pKd (GRIP1_5, Q9Y3R0; [3]): below the threshold | pKd (LNX2_3, Q8N448; [3]): below the threshold | pKd (LNX1_1, Q8TBB1; [3]): 3.8 | pKd (HTRA3, P83110; [3]): below the threshold | pKd (HTRA1, Q92743; [3]): 4.36 | pKd (CARD11, Q9BXL7; [3]): below the threshold | pKd (LRRC7, Q96NW7; [3]): 3.61 | pKd (GRIP2_4, Q9C0E4; [3]): below the threshold | pKd (MAGI3_2, Q5TCQ9; [3]): below the threshold | pKd (GORASP2, Q9H8Y8; [3]): below the threshold | pKd (LNX1_2, Q8TBB1; [3]): below the threshold | pKd (GOPC, Q9HD26; [3]): below the threshold | pKd (SNTB1, Q13884; [3]): 4.92 | pKd (GRIP2_6, Q9C0E4; [3]): below the threshold | pKd (Inadl_6, Q8NI35; [3]): 3.87 | pKd (FRMPD3, Q5JV73; [3]): below the threshold | pKd (DLG2_2, Q15700; [3]): 3.86 | pKd (TJP3_3, O95049; [3]): below the threshold

GGPKEEESPV [SLC16A1, P53985]
pKd (PDZRN4_1, Q6ZMN7; [1]): below the threshold | pKd (TJP1_3, Q07157; [1]): below the threshold | pKd (DLG4_3, P78352; [1]): below the threshold | pKd (NHERF4_1, Q86UT5-2; [1]): below the threshold | pKd (DVL3, Q92997; [1]): below the threshold | pKd (APBA3_1, O96018; [1]): below the threshold | pKd (LAP2, Q96RT1; [1]): below the threshold | pKd (MPP7, Q5T2T1; [1]): below the threshold | pKd (HTRA2, O43464; [1]): below the threshold | pKd (GRIP1_5, Q9Y3R0; [1]): below the threshold | pKd (LNX2_3, Q8N448; [1]): below the threshold | pKd (LNX1_1, Q8TBB1; [1]): below the threshold | pKd (HTRA3, P83110; [1]): below the threshold | pKd (HTRA1, Q92743; [1]): below the threshold | pKd (CARD11, Q9BXL7; [1]): below the threshold | pKd (LRRC7, Q96NW7; [1]): below the threshold | pKd (GRIP2_4, Q9C0E4; [1]): below the threshold | pKd (MAGI3_2, Q5TCQ9; [1]): below the threshold | pKd (GORASP2, Q9H8Y8; [1]): below the threshold | pKd (LNX1_2, Q8TBB1; [1]): below the threshold | pKd (GOPC, Q9HD26; [1]): below the threshold | pKd (SNTB1, Q13884; [1]): below the threshold | pKd (GRIP2_6, Q9C0E4; [1]): below the threshold | pKd (Inadl_6, Q8NI35; [1]): below the threshold | pKd (FRMPD3, Q5JV73; [1]): below the threshold | pKd (DLG2_2, Q15700; [1]): below the threshold | pKd (TJP3_3, O95049; [1]): below the threshold
